pKd: −log10 of the molar value.
Legend:
mouse C3b (mouse) = mouse C3b (mouse) (UniProt P01027); experiment: SPR; C3b amine coupled to a C1 chip (233 RU murine, 258 RU human); FH flowed over, two-fold dilution series from 2 uM to 6 nM; BIAcore T200, 25°C, HBSP+ (10 mM HEPES, 150 mM NaCl, 0.05% P20); equilibrium data, 1:1 binding model
human C3b (human) = human C3b (human) (UniProt P01024); experiment: as above

pKd (mouse C3b (mouse)): 5.92 | pKd (human C3b (human)): 5.80
Substance: recombinant murine factor H (from UniProt P06909 19-1234) (natural protein)

Source: PMC8149785
